Assay results from paper PMC2650715 (DNA repair, 2008).

What was measured:
Experiment in all cases: pull-down
[1] = target: T1, Schizosaccharomyces pombe Rdh54 (S. pombe, UniProt Q09772 1-811)
T1 sequence (looked up): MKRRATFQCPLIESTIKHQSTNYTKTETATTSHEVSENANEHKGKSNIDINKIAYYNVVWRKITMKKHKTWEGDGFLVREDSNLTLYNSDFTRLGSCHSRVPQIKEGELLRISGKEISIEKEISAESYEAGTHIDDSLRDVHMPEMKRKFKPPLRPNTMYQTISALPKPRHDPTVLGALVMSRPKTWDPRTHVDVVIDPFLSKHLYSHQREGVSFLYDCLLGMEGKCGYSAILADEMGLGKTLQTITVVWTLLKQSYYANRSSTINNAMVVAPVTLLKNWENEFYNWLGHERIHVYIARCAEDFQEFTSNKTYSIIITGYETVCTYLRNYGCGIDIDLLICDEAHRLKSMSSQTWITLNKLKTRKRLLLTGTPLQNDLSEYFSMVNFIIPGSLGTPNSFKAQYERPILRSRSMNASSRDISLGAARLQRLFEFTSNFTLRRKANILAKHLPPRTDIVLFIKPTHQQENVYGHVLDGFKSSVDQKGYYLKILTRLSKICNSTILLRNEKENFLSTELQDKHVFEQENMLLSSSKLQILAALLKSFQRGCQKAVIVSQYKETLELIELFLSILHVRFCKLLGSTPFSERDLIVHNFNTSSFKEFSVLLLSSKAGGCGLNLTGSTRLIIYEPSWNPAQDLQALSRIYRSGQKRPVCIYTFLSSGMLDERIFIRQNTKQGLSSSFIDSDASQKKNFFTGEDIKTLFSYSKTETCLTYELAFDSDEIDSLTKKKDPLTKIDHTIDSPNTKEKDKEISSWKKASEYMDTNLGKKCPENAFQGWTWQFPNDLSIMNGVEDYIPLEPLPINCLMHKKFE

[2] = target: T2, Saccharomyces cerevisiae Rdh54 K352R mutant variant (S. cerevisiae, UniProt P38086 1-958, K352R)
T2 sequence (looked up): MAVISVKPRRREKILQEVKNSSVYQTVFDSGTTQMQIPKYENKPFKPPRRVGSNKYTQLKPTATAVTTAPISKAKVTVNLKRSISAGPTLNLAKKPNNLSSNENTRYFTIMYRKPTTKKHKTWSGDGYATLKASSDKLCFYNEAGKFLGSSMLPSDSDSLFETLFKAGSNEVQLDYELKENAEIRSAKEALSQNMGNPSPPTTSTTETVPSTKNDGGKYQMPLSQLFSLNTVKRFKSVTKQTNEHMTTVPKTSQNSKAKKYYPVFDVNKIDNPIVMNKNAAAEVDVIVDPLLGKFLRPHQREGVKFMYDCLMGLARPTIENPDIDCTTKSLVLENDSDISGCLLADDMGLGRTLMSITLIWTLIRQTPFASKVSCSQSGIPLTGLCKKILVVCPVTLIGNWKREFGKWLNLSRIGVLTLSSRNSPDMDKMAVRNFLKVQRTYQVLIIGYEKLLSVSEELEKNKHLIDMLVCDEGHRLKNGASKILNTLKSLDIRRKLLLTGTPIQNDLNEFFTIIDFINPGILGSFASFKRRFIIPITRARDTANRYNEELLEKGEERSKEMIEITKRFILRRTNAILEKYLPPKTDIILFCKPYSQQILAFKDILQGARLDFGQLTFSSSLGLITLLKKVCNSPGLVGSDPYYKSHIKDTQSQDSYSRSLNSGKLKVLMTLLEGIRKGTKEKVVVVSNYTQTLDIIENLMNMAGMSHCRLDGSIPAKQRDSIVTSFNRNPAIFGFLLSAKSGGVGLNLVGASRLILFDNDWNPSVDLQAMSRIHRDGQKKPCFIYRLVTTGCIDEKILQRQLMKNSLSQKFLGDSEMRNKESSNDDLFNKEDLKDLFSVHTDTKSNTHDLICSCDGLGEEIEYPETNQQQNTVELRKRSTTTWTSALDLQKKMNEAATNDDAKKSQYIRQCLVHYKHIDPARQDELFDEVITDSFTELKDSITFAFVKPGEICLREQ

[3] = target: T3, Saccharomyces cerevisiae Rdh54 (S. cerevisiae, UniProt P38086 1-958)
T3 sequence (looked up): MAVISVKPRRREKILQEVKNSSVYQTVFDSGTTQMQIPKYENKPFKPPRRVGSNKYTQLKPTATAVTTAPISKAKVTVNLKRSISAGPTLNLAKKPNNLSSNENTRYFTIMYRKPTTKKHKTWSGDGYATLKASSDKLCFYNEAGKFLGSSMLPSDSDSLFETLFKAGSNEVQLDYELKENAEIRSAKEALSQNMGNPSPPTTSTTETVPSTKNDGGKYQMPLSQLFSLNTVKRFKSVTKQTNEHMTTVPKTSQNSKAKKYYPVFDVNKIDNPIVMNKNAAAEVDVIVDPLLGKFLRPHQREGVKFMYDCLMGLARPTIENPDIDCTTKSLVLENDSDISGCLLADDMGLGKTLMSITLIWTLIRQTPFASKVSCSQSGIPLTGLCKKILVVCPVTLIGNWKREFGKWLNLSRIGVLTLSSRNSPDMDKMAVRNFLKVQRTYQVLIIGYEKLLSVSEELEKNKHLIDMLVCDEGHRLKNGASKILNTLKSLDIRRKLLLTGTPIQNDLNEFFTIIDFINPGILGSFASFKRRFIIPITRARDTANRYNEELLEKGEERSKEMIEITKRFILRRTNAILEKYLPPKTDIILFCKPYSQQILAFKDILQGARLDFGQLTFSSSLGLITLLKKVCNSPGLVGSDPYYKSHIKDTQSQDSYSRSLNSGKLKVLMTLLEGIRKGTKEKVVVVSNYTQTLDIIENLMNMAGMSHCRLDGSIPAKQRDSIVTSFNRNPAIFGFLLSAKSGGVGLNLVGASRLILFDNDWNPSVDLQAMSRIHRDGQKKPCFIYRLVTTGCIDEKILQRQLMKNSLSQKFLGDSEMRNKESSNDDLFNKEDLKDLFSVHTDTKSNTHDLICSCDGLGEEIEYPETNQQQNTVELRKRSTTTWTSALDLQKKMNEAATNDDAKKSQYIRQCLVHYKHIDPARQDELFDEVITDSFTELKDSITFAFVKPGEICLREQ

Measured: binding result

B1: Schizosaccharomyces pombe Dmc1 (enzyme, S. pombe, UniProt O42634 1-332, looked up)
chain: MEEFAEGNDDEQMIFSDIEDLTAHGIGMTDIIKLKQAGVCTVQGVHMSTKRFLLKIKGFSEAKVDKLKEAASKMCPANFSTAMEISQNRKKVWSISTGSEALNGILGGGIQSMSITEVFGEFRCGKTQMSHTLCVTAQLPRDMGGAEGKVAFIDTEGTFRPDRIKAIAERFGVDADQAMENIIVSRAYNSEQQMEYITKLGTIFAEDGQYRLLIVDSIMALFRVDYSGRGELSERQQKLNIMLARLNHISEEFNVAVFVTNQVQADPGAAMMFASNDRKPVGGHVMAHASATRLLLRKGRGEERVAKLNDSPDMPEAECSYVITPGGIADVS
modifications: covalently coupled to Affi-Gel 15 beads
binds: [1] | [2] | [3]
